The target in test [1] is T1, LAG-3-hFc protein (human LAG-3 extracellular region with hFc tag) (human, UniProt P18627 23-450).
T1 construct: also called hLAG-3-hFc; LAG-3 protein; not shown: human IgG Fc fragment (hFc) of the pCpC vector
T1 sequence: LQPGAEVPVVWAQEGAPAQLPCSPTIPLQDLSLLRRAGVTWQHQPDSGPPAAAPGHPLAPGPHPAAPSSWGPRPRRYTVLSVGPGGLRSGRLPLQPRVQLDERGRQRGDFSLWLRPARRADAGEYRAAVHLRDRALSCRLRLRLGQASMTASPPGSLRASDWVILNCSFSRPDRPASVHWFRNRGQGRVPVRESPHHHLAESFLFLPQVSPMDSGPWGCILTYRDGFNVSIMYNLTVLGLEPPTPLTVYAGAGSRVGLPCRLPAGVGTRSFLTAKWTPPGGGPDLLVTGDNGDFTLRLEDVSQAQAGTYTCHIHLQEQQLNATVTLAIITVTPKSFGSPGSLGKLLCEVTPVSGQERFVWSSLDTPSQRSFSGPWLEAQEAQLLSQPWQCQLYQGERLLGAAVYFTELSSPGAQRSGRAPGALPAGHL
Nature of the test: FACS, inhibition of LAG-3-hFc binding to MHC II on Raji cells, antibody 7.407 nM. The procedure:
(§1) The FACS reaction plate incubating the Raji cells was centrifuged to discard the supernatant. The above mixture was added as 100 μl per well to Raji cells and incubated on ice for 1-2 hours. The plate was washed twice with blocking solution (PBS, 2% fetal bovine serum) by centrifugation, added with 100 microliters of fluorescent (Alexa 488)-labeled secondary antibodies per well, and incubated on ice for 1.0 hours. The plate was washed 2-3 times by centrifugation with blocking solution (PBS, 2% fetal bovine serum), added with 100 microliters of PBS per well to suspend cells, and detected using FACS (FACS Calibur, BD) and the results were analyzed. Wherein, the IgG control was murine IgG, and the data in the table is the inhibition rate (%).
(In general: In flow cytometry, cells or beads pass a laser one at a time.)

In test [2] the target is T2, human LAG-3 protein with hFc tag (hLAG-3-hFc protein) (human, UniProt P18627 23-450).
T2 construct: also called immunogen 1; LAG-3 extracellular domain protein; not shown: human IgG Fc fragment (hFc) of the pCpC vector
T2 sequence: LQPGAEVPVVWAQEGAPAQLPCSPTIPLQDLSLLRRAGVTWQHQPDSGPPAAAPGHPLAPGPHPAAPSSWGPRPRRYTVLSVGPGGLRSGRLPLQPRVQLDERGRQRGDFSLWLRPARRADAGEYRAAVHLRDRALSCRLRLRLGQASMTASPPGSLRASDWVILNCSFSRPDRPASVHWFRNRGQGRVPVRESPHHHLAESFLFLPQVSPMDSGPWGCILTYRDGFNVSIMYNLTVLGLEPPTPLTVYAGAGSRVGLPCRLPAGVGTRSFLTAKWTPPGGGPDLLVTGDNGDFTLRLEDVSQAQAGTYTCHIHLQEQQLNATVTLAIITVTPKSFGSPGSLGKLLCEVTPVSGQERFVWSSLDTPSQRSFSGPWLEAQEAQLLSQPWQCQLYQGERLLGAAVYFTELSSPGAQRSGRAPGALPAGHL
Nature of the test: FACS, blocks LAG-3-hFc binding to MHC II on Raji; 7.407 nM. The procedure: as §1

For test [3], the target named is T3, monkey LAG-3 (full length, on the cell surface) (monkey, UniProt P18627 24-525 (human entry)).
T3 construct: also called HEK293-cLAG-3; monkey LAG-3 protein on the cell surface
T3 chain: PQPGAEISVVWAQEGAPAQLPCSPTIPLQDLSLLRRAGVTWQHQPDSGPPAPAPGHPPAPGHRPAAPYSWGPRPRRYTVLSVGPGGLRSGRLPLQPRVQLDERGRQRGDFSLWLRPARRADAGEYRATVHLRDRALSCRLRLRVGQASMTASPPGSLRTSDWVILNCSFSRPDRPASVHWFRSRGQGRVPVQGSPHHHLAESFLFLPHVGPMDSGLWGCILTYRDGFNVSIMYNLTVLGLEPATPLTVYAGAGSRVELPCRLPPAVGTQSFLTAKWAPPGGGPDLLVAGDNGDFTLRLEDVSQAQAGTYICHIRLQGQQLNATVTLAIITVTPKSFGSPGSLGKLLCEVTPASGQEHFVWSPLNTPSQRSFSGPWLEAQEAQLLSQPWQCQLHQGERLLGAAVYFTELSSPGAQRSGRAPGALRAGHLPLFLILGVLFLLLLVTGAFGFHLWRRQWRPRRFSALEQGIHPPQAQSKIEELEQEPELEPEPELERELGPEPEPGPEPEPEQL
The test can be described thus: FACS, HEK293-cLAG-3; 0.064 nM. An excerpt: The pIRES plasmid with the monkey-derived full-length gene was transfected into the HEK293 cell line to construct a HEK293 stable cell line containing monkey LAG-3 (herein referred to as HEK293-cLAG-3 stable cell line). The HEK293-hLAG-3 stable cell line and HEK293-cLAG-3 stable cell line were expanded in a T-75 cell culture flask to a 90% confluence. The medium was aspirated, and the cells were washed with HBSS (Hanks' Balanced Salt Solution) 1-2 times, then treated with a enzyme-free cell dissociation fluid (Versene solution: Life technology) and the cells were collected. The cells were washed with HBSS buffer for 1-2 times. After counted, the cells were diluted with HBSS to 1-2×10⁶ cells per ml, added with 1% goat serum blocking solution, incubated on ice for 20-30 minutes, and then washed with HBSS for 2 times by centrifugation. The collected cells were suspended in the FACS buffer (HBSS+1% BSA) to 2×10⁶ cells/ml, added as 100 microliters per well to a 96-well FACS reaction plate, added with 100 microliters per well of the antibody sample to be tested, incubated on ice for 1-2 hours. The plate was washed twice with the FACS buffer by centrifugation, added with 100 microliters of fluorescent (Alexa 488)-labeled secondary antibodies per well, and incubated on ice for 0.5-1.0 hours. The plate was washed 2-3 times with FACS buffer by centrifugation, added with 100 μl fixative solution (4% Paraformaldehyde) per well to suspend the cells. 5-10 minutes later, it was washed 1-2 times with FACS buffer by centrifugation. The cells were suspended with 100 microliters of FACS buffer, FACS (FACSCalibur, BD) was used for detection and the results were analyzed.

B1: 556F6B8 mouse-human chimeric antibody (antibody, V domains shown)
VH: RVQLKQSGPGLVQPSQSLSITCTVSGFSLIKYGVHWVRQSPGEGLEWLGVIWRGGITDYNAAFMSRLSITKDNSKSQVFFKMNSLQADDTAIYYCAKWDGPLAMDYWGQGTSVTVSS
VL: DIVMTQSHKFLSTSVGDRVSITCKASQDVGTTVAWYQQKPGQSPKLLIYWASTRHTGVPDRFTGSGSGTDFTLTISNVQSEDLADYFCQQYSSYPYTFGGGTKLEIK
notes: also called mAb123-556F6B8; 556F8B8
In the case of B1, the “Inhibition rate (%)” value in test [1] is 82.7%.

B2: 556F6B8 (mouse antibody purified from hybridoma) (antibody, V domains shown)
VH: RVQLKQSGPGLVQPSQSLSITCTVSGFSLIKYGVHWVRQSPGEGLEWLGVIWRGGITDYNAAFMSRLSITKDNSKSQVFFKMNSLQADDTAIYYCAKWDGPLAMDYWGQGTSVTVSS
VL: DIVMTQSHKFLSTSVGDRVSITCKASQDVGTTVAWYQQKPGQSPKLLIYWASTRHTGVPDRFTGSGSGTDFTLTISNVQSEDLADYFCQQYSSYPYTFGGGTKLEIK
notes: also called mAb123-556F6B8
As to B2, the “Inhibition rate (%)” value in test [2] was 93.3%. In test [3], the Mean fluorescence intensity is 5.1 MFI.

B3: 405B8H3 (mouse antibody purified from hybridoma) (antibody, V domains shown)
VH: QVQLQQSGAELVRPGASVTLSCKASGYTFTDYEMHWVKQTPVHGLEWIGATDPETGNSAYNQKFKGKAIMTADKSSSTAYMELRSLTSEDSAVYYCISTGWNDWGQGTSLTVSS
VL: DIKMTQSPSSMYASLGERVTITCKASQDINSYLSWFQQKPGKSPKTLIYRADRLLDGVPSRFSGSGSGQDYSLTISSLEYGDMGIYYCLQYDEFPYTFGGGTKLEIK
notes: also called mAb103-405B8H3; 405B81-13
As for B3, the “Inhibition rate (%)” value in test [2] amounted to 87.3%. The same molecule returned a Mean fluorescence intensity in test [3] of 4.9 MFI.

B4: 105F1E10 mouse-human chimeric antibody (antibody, V domains shown)
VH: EVQLQQSGPELVKPGASVKMSCRASGYTFTDFKMHWMKQSHGKSLEWIGYIAPNNGGTAYNQKFRGKATLTVNESSNTAYMELRSLTSEDSAVYYCVDWDDVDYWGQGTTLTVSS
VL: DIKMTQSPSSMYASLGERVTITCKASQDINSYLSWFQQKSGKSPKTLIYRANRLVDGVPSRFSGSGSGQDYSLTISSLEYEDMGIYYCLQYVEFPLTFGAGTKLELK
notes: also called mAb009-105F1E10
As to B4, the “Inhibition rate (%)” value in test [1] was 67%.

B5: 405B8H3 mouse-human chimeric antibody (antibody, V domains shown)
VH: QVQLQQSGAELVRPGASVTLSCKASGYTFTDYEMHWVKQTPVHGLEWIGATDPETGNSAYNQKFKGKAIMTADKSSSTAYMELRSLTSEDSAVYYCISTGWNDWGQGTSLTVSS
VL: DIKMTQSPSSMYASLGERVTITCKASQDINSYLSWFQQKPGKSPKTLIYRADRLLDGVPSRFSGSGSGQDYSLTISSLEYGDMGIYYCLQYDEFPYTFGGGTKLEIK
notes: also called mAb103-405B8H3
For the molecule B5, the “Inhibition rate (%)” value in test [1] is 95.1%.

B6: 105F1E10 (mouse antibody purified from hybridoma) (antibody, V domains shown)
VH: EVQLQQSGPELVKPGASVKMSCRASGYTFTDFKMHWMKQSHGKSLEWIGYIAPNNGGTAYNQKFRGKATLTVNESSNTAYMELRSLTSEDSAVYYCVDWDDVDYWGQGTTLTVSS
VL: DIKMTQSPSSMYASLGERVTITCKASQDINSYLSWFQQKSGKSPKTLIYRANRLVDGVPSRFSGSGSGQDYSLTISSLEYEDMGIYYCLQYVEFPLTFGAGTKLELK
notes: also called mAb009-105F1E10
Regarding B6, in test [2], the “Inhibition rate (%)” value was 81%. For the same molecule, the Mean fluorescence intensity in test [3] came out at 4.5 MFI.

B7: 409D4E10 (mouse antibody purified from hybridoma) (antibody, V domains shown)
VH: QVQLQQSGAELVRPGASVTLSCKASGNTFTDYEMHWVKQTPVHGLEWIGATDPETDNTAYNQKFKGKAILTTDKSSSTAYMELRSLTSEDSAVYYCITSGWNDWGQGTSLTVSS
VL: DIKMTQSPSSMYASLGERVTITCKASQDINSYLSWFQQKPGKSPKTLIYRANRLLDGVPSRFSGSGSGQDYSLTISSLEYEDMGIYYCLQYNEFPYTFGGGTKLEIK
notes: also called mAb112-409D4E10
With B7, the “Inhibition rate (%)” value in test [2] stood at 93%. Moreover, in test [3], the Mean fluorescence intensity worked out at 4.7 MFI.

B8: 409B11E12 (mouse antibody purified from hybridoma) (antibody, V domains shown)
VH: QVQLQQSGAELVRPGASVTLSCKASGYTFTDYEMHWVKQTTVHGLEWIGATDPETSYSAYNQKFKGKAILTADKSSSTAYMELRSLTSEDSAVYYCIATGWNDWGQGTSLTVSS
VL: DLKMTQSPSSMYASLGERVTITCKASQDINSYLSWFQQKPGKSPKTLIYRANRLLDGVPSRFSGSGSGQDYSLTISSLEYEDMGIYYCLQYDEFPYTFGGGTKLEIK
notes: also called mAb104-409B11E12
As for B8, the “Inhibition rate (%)” value in test [2] stood at 93.4%. In addition, in test [3], the Mean fluorescence intensity is 4.2 MFI.

B9: 409D4E10 mouse-human chimeric antibody (antibody, V domains shown)
VH: QVQLQQSGAELVRPGASVTLSCKASGNTFTDYEMHWVKQTPVHGLEWIGATDPETDNTAYNQKFKGKAILTTDKSSSTAYMELRSLTSEDSAVYYCITSGWNDWGQGTSLTVSS
VL: DIKMTQSPSSMYASLGERVTITCKASQDINSYLSWFQQKPGKSPKTLIYRANRLLDGVPSRFSGSGSGQDYSLTISSLEYEDMGIYYCLQYNEFPYTFGGGTKLEIK
notes: also called mAb112-409D4E10
With B9, the “Inhibition rate (%)” value in test [1] is 94.7%.

B10: 409B11E12 mouse-human chimeric antibody (antibody, V domains shown)
VH: QVQLQQSGAELVRPGASVTLSCKASGYTFTDYEMHWVKQTTVHGLEWIGATDPETSYSAYNQKFKGKAILTADKSSSTAYMELRSLTSEDSAVYYCIATGWNDWGQGTSLTVSS
VL: DLKMTQSPSSMYASLGERVTITCKASQDINSYLSWFQQKPGKSPKTLIYRANRLLDGVPSRFSGSGSGQDYSLTISSLEYEDMGIYYCLQYDEFPYTFGGGTKLEIK
notes: also called mAb104-409B11E12
In the case of B10, in test [1], the “Inhibition rate (%)” value was found to be 95.1%.

These data come from patent US20210155689A1 (SHANGHAI PHARMAEXPLORER, published 2021).
